The record followed here is US7193044B1, “Compounds and methods for regulating apoptosis, and methods of making and screening for compounds that regulate apoptosis” (Immunogen, Inc., priority 2000, dated 2007).

Assay [1] relates to BAD phosphorylation in COS-7 cells. As to the kind of experiment: BAD phosphorylation in COS-7 cells (western blot band-shift). It is filed as cell-based. The conditions noted are these: anti-HA western blot. The text has this:
Mouse FL5.12 cells were then transfected with the expression vector encoding the shorter murine BAD of SEQ ID NO:3 or one of the three BAD mutants. Total mRNA was isolated from the transfected FL5.12 cells, and reverse transcribed into cDNA. The cDNA was then subcloned into the expression vector pcDNA3 so that the amino acid sequence of the BAD or mutant BAD, encoded by the subcloned cDNA, was in-frame and operably linked to an N-terminal hemagglutinin (“HA”) epitope encoded by the expression vector. The expression vectors encoding the HA-tagged shorter murine BAD and mutant BAD were expressed in COS-7 cells. Whole cell lysates (“WCL”) were then prepared from the COS-7 cells expressing the polypeptides. The phosphorylation of the shorter murine BAD of SEQ ID NO:3 and mutant BAD were detected by a western blot of the WCL, probed with an anti-HA antibody (“anti-HA antibody”). […] Of note, each of the BAD mutants resolved as a doublet on a 16% SDS-PAGE, even though in the amino acid sequence of each of the BAD mutants one or both of the serines corresponding to Ser112 and Ser136 were mutated, i.e., substituted with alanine. […]
On the technique in general: Immunoblotting shows a protein as a band on a membrane.

Assay [2] deals with HeLa cells. As to the kind of experiment: Fluorescence-based beta-galactosidase assay of BAD-induced cell death in transfected HeLa cells. Also on record: species or system human. The conditions noted are these: compared to wild-type BAD. How it is done: FIG. 12(B) is a graphic representation of the results of a β-galactosidase assay. HeLa cells were co-transfected with the β-galactosidase gene and either HA-BAD (“WT”), HA-BAD S155A (“S155A”), HA-BAD S112A/S136A (“S112A/S136A”) or HA-BAD S112A/S136A/S155A (“AAA”). Transfected cells were then cultured in serum-free medium (SFM) or SFM supplemented with EGF (SFM+EGF) for 12 hours. Cell lysates were prepared and BAD-induced cell death was measured by the loss of β-galactosidase activity in a fluorescence-based assay. Fluorescence was measured at 465 nm. Results shown are the average and standard deviation of triplicate transfections (this experiment was repeated two more times with similar results). Expression levels of HA-tagged BAD and BAD mutants in transfected cell lysates were detected by anti-HA western blot analysis: HA-BAD (“WT”), HA-BAD S155A (“A”), HA-BAD S112A/S136A (“AA”), and HA-BAD S112A/S136A/S155A (“AAA”).
FIG. 12(C) is a graphic representation of the results of a β-galactosidase assay. HeLa cells were co-transfected with the β-galactosidase gene and either an empty vector (“CTL”), wild-type BAD (“WT”), the BAD S155A mutant (“S155A”) or the BAD S155D mutant (“S155D”). Cell lysates were prepared and BAD-induced cell death was measured by the loss of β-galactosidase activity in a fluorescence-based assay. Fluorescence was measured at 465 nm. Results shown are the average and standard deviation of triplicate transfections (this experiment was repeated two more times with similar results).
HeLa cells were co-transfected with the β-galactosidase gene and either wild-type BAD, BAD S155A, BAD S112A/S136A or BAD S112A/S136A/S155A. […] Cell lysates were prepared and BAD-induced cell death was measured by the loss of β-galactosidase activity in a fluorescence-based assay. […]
To measure β-gal activity, HeLa cells were plated in 12-well plates at 5×10^4 cells/well one day prior to transfection. […] Beta-gal activity was measured in extracts using a fluorogenic substrate (MUG, BIO-RAD FluorAce™ β-gal Reporter Assay, #170–3150). […]

Assay [3] deals with BAD Ser155 phosphorylation in HeLa cells. In words: BAD phosphorylation in HeLa cells (western blot band-shift / anti-phospho-Ser155 antibody). It is filed as cell-based, human. The conditions noted are these: HeLa cells. How it is done:
A mammalian expression vector encoding mutant HA-BAD S155A, derived from the shorter murine BAD of SEQ ID NO:3, was constructed. HA-BAD S155A has an amino acid sequence wherein the serine at a position corresponding to Ser155 is substituted with alanine. A western blot was performed on WCL prepared from cells expressing the shorter murine BAD (SEQ ID NO:3), HA-BAD S112A, HA-BAD S136A, or HA-BAD S155A, and probed with anti-HA antibody.
A western blot analysis, probed with anti-HA antibody, was performed on lysates produced from the Forskolin treated and untreated (control) cells to determine whether Forskolin could induce the phosphorylation BAD or mutant BAD.
HeLa cells transiently expressing HA-BAD, HA-BAD S155A, HA-BAD S112A/S136A, or HA-BAD S112A/S136A/S155A were treated with Forskolin or a buffer control.
The HA-BAD S112A/S136A double mutant was transiently expressed in HeLa cells, and transfected cell cultures were treated with each of the GPCR ligands, individually and as a group. A western blot analysis, probed with anti-HA antibody, was performed on lysates produced from the treated and untreated (negative control) cells. […] Forskolin (FK) and no treatment (−) were positive and negative controls, respectively (FIG. 6(a), […], respectively).
Non-transfected HeLa cells were treated with Forskolin or L-epinephrine, followed by western blot analysis of cell lysates using anti-BAD antibodies.
Transformants were treated with L-epinephrine, then lysed and subjected to anti-HA western blot analysis.
To further test whether phosphorylation of Ser155 is dependent on the PI 3-kinase/Akt pathway, HeLa cells were transfected with the mutant HA-BAD S155A and pretreated with Wortmannin, an inhibitor of PI 3-kinase. These cells were then stimulated with epidermal growth factor (EGF), lysed and analyzed by western blot analysis.
For immunoprecipitation of all HA-BAD species, 1 μg of the anti-HA antibody was added to the cell lysates, and incubated at 4° C. for one hour. Protein G agarose (Pierce) was then added (50 μl/fraction of 50% slurry) and followed by a one hour incubation at 4° C. Beads were washed with RIPA buffer, boiled in loading buffer (2% SDS, 10% glycerol, 5% β-ME, 60 mM Tris, pH 6.8, 0.002% Bromophenol Blue) and loaded onto polyacrylamide gels. After electrophoresis, proteins were transferred to nitrocellulose membranes, and blots blocked in western wash buffer (40 mM Tris, pH 8.0, 150 mM NaCl, 0.2% NP-40) with 5% BSA for one hour at room temperature. Blots were incubated with primary antibody diluted in western wash buffer with 3% BSA at room temperature for 1–2 hours, washed with western wash buffer and incubated with secondary HRP-coupled antibody diluted in western wash buffer with 1.5% BSA, and washed extensively. Polypeptides were detected with the ECL chemiluminescence according to the manufacturers instructions (Amersham).

Assay [4] deals with HeLa cells. As to the kind of experiment: Beta-gal ELISA apoptosis assay in transfected HeLa cells. The assay is classed as cell-based, human. The following applies: HeLa cells, 24 hours post-transfection. How it is done:
Because BAD Ser155 phosphorylation, like Ser136 phosphorylation, prevents BAD from binding to Bcl-XL (FIG. 1), it was possible that by analogy, Ser155 dephosphorylation promotes cell death. To test this idea, HeLa cells were co-transfected with BAD or various BAD serine mutants and a β-gal reporter plasmid. Twenty-four hours post-transfection, cell viability was analyzed by β-gal ELISA.
To test this idea, HeLa cells were again co-transfected with BAD or various BAD serine mutants and a β-gal reporter plasmid. Forskolin was then added to half of the cultures while the other half was left untreated. Beta-gal ELISAs were performed 24 hours post transfection. […] Thus, phosphorylation of Ser155 rescues cells from BAD-induced apoptosis, while substitution of Ser155 with a nonphosphorylatable residue results in increased cell death and the failure of cells to be protected from induced PKA activity.
Beta-gal ELISA assays were performed using the β-gal ELISA system from Boehringer Mannheim, according to manufacture's instructions. Cells were transfected with BAD (or BAD mutant) and β-gal in a ratio of 5:1. The transfected cells were trypsinized and distributed into 96-well tissue culture plates. Twenty-four hours after transfection, cell extracts were obtained by lysing the cells in lysis buffer. Cell extracts (200 μl) were then added to anti-β-gal-coated microtiter plates (MTP). The MTPs were foil-covered and incubated for one hour at 37° C. Solutions were then decanted and the MTPs were washed, followed by the addition of 200 μl of anti-β-gal-DIG working solution, and incubation for an additional hour as described above. Solutions were again decanted, the MTPs washed and 200 μl of DIG-POD working solution were added. The MTPs were incubated for another hour at 37° C., the solution decanted, and the wells washed. 200 μl of substrate with enhancer were added to each well and incubated at room temperature until color development. The β-gal activity was measured by the absorbance of the sample at […]. Data were based on triplicate wells with standard deviations calculated.
In general terms: An ELISA detects its analyte on a solid surface through an enzyme-linked reagent.

Numbering of substitutions follows the chain as printed. Names may count otherwise.

B1: HA-BAD S112A/S134A/S136A: HA-tagged mutant of shorter murine BAD, serines corresponding to Ser112, Ser134 and Ser136 substituted with alanine (protein, UniProt Q61337 1-204, looked up, variant S112A S134A S136A)
Bcl2-associated agonist of …: MGTPKQPSLAPAHALGLRKSDPGIRSLGSDAGGRRWRPAAQSMFQIPEFEPSEQEDASATDRGLGPSLTEDQPGPYLAPGLLGSNIHQQGRAATNSHHGGAGAMETRSRHSAYPAGTEEDEGMEEELSPFRGRARAAPPNLWAAQRYGRELRRMSDEFEGSFKGLPRPKSAGTATQMRQSAGWTRIIQSWWDRNLGKGGSTPSQ
modifications: HA tag
notes: HA-tagged mutant of shorter murine BAD, serines corresponding to Ser112, Ser134 and Ser136 substituted with alanine
In the case of B1, in assay [1], the “phosphorylation of expressed BAD mutant (lambda phosphatase-sensitive higher molecular weight band)” value is listed as “does not eliminate the phosphorylation of BAD”.

B2: BAD S155D: BAD mutant, Ser155 replaced with aspartic acid to mimic the negatively charged phospho-Ser155 residue (protein, UniProt Q61337 1-204, looked up, variant S155D)
Bcl2-associated agonist of …: B1 Bcl2-associated agonist of … with A112S, A134S, A136S, S155D
B2: the pro-apoptotic activity entry in assay [2] is listed as “no pro-apoptotic activity”.

B3: BAD S136A: mutant of shorter murine BAD, serine corresponding to Ser136 substituted with alanine; HA- or GST-tagged (protein, UniProt Q61337 1-204, looked up, variant S136A)
Bcl2-associated agonist of …: B1 Bcl2-associated agonist of … with A112S, A134S
modifications: HA or GST tag
notes: mutant of shorter murine BAD, serine corresponding to Ser136 substituted with alanine; HA- or GST-tagged
B3: the “band-shift (phosphorylation) of expressed BAD construct in response to L-epinephrine” value in assay [3] is “significant band-shift”. Moreover, in assay [4], the “effect of expressed BAD mutant on cellular survival / cell death” value is listed as “next greatest effect”.
